Reference: paper PMC7881136, “Mechanism of karyopherin-β2 binding and nuclear import of ALS variants FUS(P525L) and FUS(R495X)” (Scientific Reports, 2021)
Blank lines part the entries; values can stand above or below the binder they belong to.

How the values were obtained:
Conditions in all cases: both partners purified
[1] = biological target: T1, FUS(P525L)^PY-NLS (475–526, P525L), MBP removed (UniProt P35637 475-526, P525L); experiment: crystal structure; Kapβ2ΔLoop·FUS(P525L) PY-NLS complex, 2.7 Å, space group P2(1)2(1)2, molecular replacement; crystals from 1 M succinic acid pH 7.0, 1% PEG MME2000, 20 °C
T1 construct: FUS residues 475–526 with the ALS mutation P525L; residues 507–526 modeled in the crystal structure; also called FUS(475–526, P525L); FUS PY-NLS(P525L); source: E. coli, lysed together with bacteria expressing GST-Kapβ2ΔLoop; complex purified (GSH sepharose, amylose, TEV, gel filtration); not shown: MBP, N-terminal, cleaved
T1 sequence (looked up): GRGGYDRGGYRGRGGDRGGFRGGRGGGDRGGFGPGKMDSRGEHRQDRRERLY

[2] = biological target: T2, Kapβ2 (untagged, GST removed) (human, UniProt Q92973-2 1-890); experiment: ITC; quality control of the Kapβ2 preparations with MBP-hnRNP A1 PY-NLS; set-up not told
T2 construct: Karyopherin β2 (Kapβ2, Transportin-1, TNPO1), human; used for ITC and turbidity assays; also called Karyopherin-β2; Transportin-1; source: E. coli BL21 (DE3), purified (GSH column, Tev cleavage, anion exchange, SEC Superdex200)
T2 sequence (looked up): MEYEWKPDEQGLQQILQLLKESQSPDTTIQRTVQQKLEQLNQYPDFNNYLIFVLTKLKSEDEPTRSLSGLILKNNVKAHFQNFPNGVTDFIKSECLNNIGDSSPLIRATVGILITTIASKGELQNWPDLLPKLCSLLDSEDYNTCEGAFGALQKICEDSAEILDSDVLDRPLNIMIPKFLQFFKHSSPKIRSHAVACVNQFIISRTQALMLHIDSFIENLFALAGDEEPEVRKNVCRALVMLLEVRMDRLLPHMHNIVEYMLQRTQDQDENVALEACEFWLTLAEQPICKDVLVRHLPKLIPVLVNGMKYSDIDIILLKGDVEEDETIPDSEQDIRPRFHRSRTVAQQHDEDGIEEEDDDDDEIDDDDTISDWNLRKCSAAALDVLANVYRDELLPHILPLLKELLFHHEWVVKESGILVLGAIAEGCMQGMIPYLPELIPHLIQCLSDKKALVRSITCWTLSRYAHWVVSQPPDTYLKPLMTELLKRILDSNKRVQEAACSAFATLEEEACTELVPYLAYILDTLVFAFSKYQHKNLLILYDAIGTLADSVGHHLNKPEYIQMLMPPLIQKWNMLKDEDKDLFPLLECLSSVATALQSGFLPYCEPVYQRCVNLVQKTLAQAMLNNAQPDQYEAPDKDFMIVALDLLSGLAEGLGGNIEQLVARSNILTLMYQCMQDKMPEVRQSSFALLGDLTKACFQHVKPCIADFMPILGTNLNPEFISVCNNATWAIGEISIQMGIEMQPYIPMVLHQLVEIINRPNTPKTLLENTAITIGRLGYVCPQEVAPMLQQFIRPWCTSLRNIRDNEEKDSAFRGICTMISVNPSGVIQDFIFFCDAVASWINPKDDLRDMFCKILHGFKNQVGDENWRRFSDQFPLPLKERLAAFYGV

[3] = biological target: T2, Kapβ2 (untagged, GST removed); experiment: ITC; reversed set-up: 10 μM MBP-FUS protein in the cell, 100 μM or 200 μM Kapβ2 in the syringe; 20 mM Tris–HCl, 150 mM NaCl, 10% glycerol, 2 mM BME; 20 °C; single class of binding sites; 'apparent' KD for FUS(1–370)

binding result [1]: binds
B1: Kapβ2ΔLoop (residues 337–367 replaced with a GGSGGSG linker) (natural protein, human)
chain: MEYEWKPDEQGLQQILQLLKESQSPDTTIQRTVQQKLEQLNQYPDFNNYLIFVLTKLKSEDEPTRSLSGLILKNNVKAHFQNFPNGVTDFIKSECLNNIGDSSPLIRATVGILITTIASKGELQNWPDLLPKLCSLLDSEDYNTCEGAFGALQKICEDSAEILDSDVLDRPLNIMIPKFLQFFKHSSPKIRSHAVACVNQFIISRTQALMLHIDSFIENLFALAGDEEPEVRKNVCRALVMLLEVRMDRLLPHMHNIVEYMLQRTQDQDENVALEACEFWLTLAEQPICKDVLVRHLPKLIPVLVNGMKYSDIDIILLKGDVEEDETIPDSEQDIRGGSGGSGDTISDWNLRKCSAAALDVLANVYRDELLPHILPLLKELLFHHEWVVKESGILVLGAIAEGCMQGMIPYLPELIPHLIQCLSDKKALVRSITCWTLSRYAHWVVSQPPDTYLKPLMTELLKRILDSNKRVQEAACSAFATLEEEACTELVPYLAYILDTLVFAFSKYQHKNLLILYDAIGTLADSVGHHLNKPEYIQMLMPPLIQKWNMLKDEDKDLFPLLECLSSVATALQSGFLPYCEPVYQRCVNLVQKTLAQAMLNNAQPDQYEAPDKDFMIVALDLLSGLAEGLGGNIEQLVARSNILTLMYQCMQDKMPEVRQSSFALLGDLTKACFQHVKPCIADFMPILGTNLNPEFISVCNNATWAIGEISIQMGIEMQPYIPMVLHQLVEIINRPNTPKTLLENTAITIGRLGYVCPQEVAPMLQQFIRPWCTSLRNIRDNEEKDSAFRGICTMISVNPSGVIQDFIFFCDAVASWINPKDDLRDMFCKILHGFKNQVGDENWRRFSDQFPLPLKERLAAFYGV
notes: linker that replaces residues 337–367; crystallisation construct; also called GST-Kapβ2ΔLoop; source: E. coli, lysed together with bacteria expressing MBP-FUS(475–526, P525L); complex purified (GSH sepharose, amylose, TEV, gel filtration)

Kd [2]: ~50 nM
B2: MBP-hnRNP A1 PY-NLS (domain or fragment)
chain: GGSYNDFGNYNNQSSNFGPMKGGNFGGRSSGPYGGGGQYFAKPRNQGGY
modifications: Limits not printed: conventional hnRNP A1 PY-NLS (M9) construct 257-305 in the 320-aa A1-A isoform, shifted by +52 to the 372-aa canonical entry. MBP omitted.

Kd [3]: 330 nM
B3: MBP-FUS(R495X) (residues 1–494) (domain or fragment, UniProt P35637 1-494, looked up)
chain: MASNDYTQQATQSYGAYPTQPGQGYSQQSSQPYGQQSYSGYSQSTDTSGYGQSSYSSYGQSQNTGYGTQSTPQGYGSTGGYGSSQSSQSSYGQQSSYPGYGQQPAPSSTSGSYGSSSQSSSYGQPQSGSYSQQPSYGGQQQSYGQQQSYNPPQGYGQQNQYNSSSGGGGGGGGGGNYGQDQSSMSSGGGSGGGYGNQDQSGGGGSGGYGQQDRGGRGRGGSGGGGGGGGGGYNRSSGGYEPRGRGGGRGGRGGMGGSDRGGFNKFGGPRDQGSRHDSEQDNSDNNTIFVQGLGENVTIESVADYFKQIGIIKTNKKTGQPMINLYTDRETGKLKGEATVSFDDPPSAKAAIDWFDGKEFSGNPIKVSFATRRADFNRGGGNGRGGRGRGGPMGRGGYGGGGSGGGGRGGFPSGGGGGGGQQRAGDWKCPNPTCENMNFSWRNECNQCKAPKPDGPGGGPGGSHMGGNYGDDRRGGRGGYDRGGYRGRGGDRGGF
notes: source: E. coli BL21 (DE3), purified (amylose resin, SEC); not shown: MBP, N-terminal, kept
